# Biological target: E2F-1 (UniProt Q01094)
# Experiment: cell_activity
# Settings: CHO cells, -T antigen; CAT/bGAL 5.2 vs 2.6
# E2F-1, sequence (Q01094 whole entry): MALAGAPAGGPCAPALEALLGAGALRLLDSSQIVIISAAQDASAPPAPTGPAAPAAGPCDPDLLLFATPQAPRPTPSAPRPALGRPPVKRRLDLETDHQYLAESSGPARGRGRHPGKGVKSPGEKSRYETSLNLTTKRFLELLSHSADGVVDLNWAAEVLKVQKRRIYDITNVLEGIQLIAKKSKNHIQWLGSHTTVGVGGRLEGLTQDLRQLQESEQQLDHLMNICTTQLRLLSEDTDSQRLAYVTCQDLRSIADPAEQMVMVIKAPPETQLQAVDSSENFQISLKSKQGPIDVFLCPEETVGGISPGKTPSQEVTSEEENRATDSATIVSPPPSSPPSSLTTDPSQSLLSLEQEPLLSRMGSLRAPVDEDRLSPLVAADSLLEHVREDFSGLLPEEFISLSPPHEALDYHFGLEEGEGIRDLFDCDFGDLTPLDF
substance,measurement,value
HGAPDH promoter (-487 to +21)-CAT,activity,2 fold
